The text below walks through data of publication doi:10.1101/466904 (bioRxiv, 2018).

Where two headings read alike, the source gives them in different places.

For data set [1], the target named is 3RJT protein Asn183Ala mutant (Alicyclobacillus acidocaldarius subsp. Acidocaldarius DSM446). Kind of data set: SEC.
The target of data set [2] is Sku, Axe2 homologue. Kind of data set: SEC. In general terms: In gel filtration, larger molecules generally elute earlier.
Data set [3] concerns the target Sku, Axe2 homologue. Kind of data set: dynamic light scattering.
The target of data set [4] is Pal, Axe2 homologue. Kind of data set: SEC.
In data set [5] the target is Pal, Axe2 homologue. The data set is described as follows: dynamic light scattering.
Data set [6] has as its target Cph, Axe2 homologue. The data set is described as follows: SEC.
The target of data set [7] is Cph, Axe2 homologue. Kind of data set: dynamic light scattering.
Data set [8] addresses Pjd, Axe2 homologue. Kind of data set: SEC.
The target of data set [9] is Pjd, Axe2 homologue. Kind of data set: dynamic light scattering.
Data set [10] concerns the target Pda, Axe2 homologue. Kind of data set: SEC.
Data set [11] addresses Pda, Axe2 homologue. Kind of data set: dynamic light scattering.
Data set [12] concerns the molecule itself. The data set is described as follows: SEC.
Data set [13] deals with the molecule itself. Kind of data set: SEC. The source holds these as a separate data set.
Data set [14] deals with the molecule itself. The data set is described as follows: SEC. This is another data set of the same source.

Turning to 3RJT protein Asn183Ala mutant (enzyme), in [1], the stoichiometry N is 2. In the case of Sku, Axe2 homologue (enzyme), the stoichiometry N in the data set with Sku, Axe2 homologue [2] is 8; with Sku, Axe2 homologue [3], 8. For Pal, Axe2 homologue (enzyme), the stoichiometry N in the data set with Pal, Axe2 homologue [4] was determined as 8; in the data set with Pal, Axe2 homologue [5], 8. For Cph, Axe2 homologue (enzyme), the stoichiometry N with Cph, Axe2 homologue [6] worked out at 8; in the data set with Cph, Axe2 homologue [7], 8. For the molecule Pjd, Axe2 homologue (enzyme), the stoichiometry N stood at 8 with Pjd, Axe2 homologue [8] and 8 with Pjd, Axe2 homologue [9]. Consider Pda, Axe2 homologue (enzyme), for which the stoichiometry N in the data set with Pda, Axe2 homologue [10] was found to be 8; with Pda, Axe2 homologue [11] it was 8.

B1: Axe2 acetyl-xylo-oligosaccharide esterase from Geobacillus stearothermophilus, wild type (enzyme)
chain: MKIGSGEKLLFIGDSITDCGRARPEGEGSFGALGTGYVAYVVGLLQAVYPELGIRVVNKGISGNTVRDLKARWEEDVIAQKPDWVSIMIGINDVWRQYDLPFMKEKHVYLDEYEATLRSLVLETKPLVKGIILMTPFYIEGNEQDPMRRTMDQYGRVVKQIAEETNSLFVDTQAAFNEVLKTLYPAALAWDRVHPSVAGHMILARAFLREIGFEWVRSR
With B1, the “stoichiometry N” value in “SEC [12]” came to 8.

B2: Axe2 Arg55Ala mutant (enzyme)
chain: MKIGSGEKLLFIGDSITDCGRARPEGEGSFGALGTGYVAYVVGLLQAVYPELGIAVVNKGISGNTVRDLKARWEEDVIAQKPDWVSIMIGINDVWRQYDLPFMKEKHVYLDEYEATLRSLVLETKPLVKGIILMTPFYIEGNEQDPMRRTMDQYGRVVKQIAEETNSLFVDTQAAFNEVLKTLYPAALAWDRVHPSVAGHMILARAFLREIGFEWVRSR
Turning to B2, the “stoichiometry N” value in the data set “SEC [13]” came out at 8.

B3: Axe2 triple mutant Tyr184Phe-Arg205Ala-Trp215Ala (enzyme)
chain: MKIGSGEKLLFIGDSITDCGRARPEGEGSFGALGTGYVAYVVGLLQAVYPELGIRVVNKGISGNTVRDLKARWEEDVIAQKPDWVSIMIGINDVWRQYDLPFMKEKHVYLDEYEATLRSLVLETKPLVKGIILMTPFYIEGNEQDPMRRTMDQYGRVVKQIAEETNSLFVDTQAAFNEVLKTLFPAALAWDRVHPSVAGHMILAAAFLREIGFEAVRSR
In the case of B3, the “stoichiometry N” value in “SEC [12]” is 2.

B4: Axe2 Tyr184Phe mutant (enzyme)
chain: MKIGSGEKLLFIGDSITDCGRARPEGEGSFGALGTGYVAYVVGLLQAVYPELGIRVVNKGISGNTVRDLKARWEEDVIAQKPDWVSIMIGINDVWRQYDLPFMKEKHVYLDEYEATLRSLVLETKPLVKGIILMTPFYIEGNEQDPMRRTMDQYGRVVKQIAEETNSLFVDTQAAFNEVLKTLFPAALAWDRVHPSVAGHMILARAFLREIGFEWVRSR
Turning to B4, the “stoichiometry N” value in “SEC [12]” was 2.

B5: Axe2 Arg192Lys mutant (enzyme)
chain: MKIGSGEKLLFIGDSITDCGRARPEGEGSFGALGTGYVAYVVGLLQAVYPELGIRVVNKGISGNTVRDLKARWEEDVIAQKPDWVSIMIGINDVWRQYDLPFMKEKHVYLDEYEATLRSLVLETKPLVKGIILMTPFYIEGNEQDPMRRTMDQYGRVVKQIAEETNSLFVDTQAAFNEVLKTLYPAALAWDKVHPSVAGHMILARAFLREIGFEWVRSR
In the case of B5, the “stoichiometry N” value in the data set “SEC [12]” is 2.

B6: Axe2 Trp190Ile mutant (enzyme)
chain: MKIGSGEKLLFIGDSITDCGRARPEGEGSFGALGTGYVAYVVGLLQAVYPELGIRVVNKGISGNTVRDLKARWEEDVIAQKPDWVSIMIGINDVWRQYDLPFMKEKHVYLDEYEATLRSLVLETKPLVKGIILMTPFYIEGNEQDPMRRTMDQYGRVVKQIAEETNSLFVDTQAAFNEVLKTLYPAALAIDRVHPSVAGHMILARAFLREIGFEWVRSR
In the case of B6, in “SEC [12]”, the “stoichiometry N” value stood at 8.

B7: Axe2 Arg55Glu mutant (enzyme)
chain: MKIGSGEKLLFIGDSITDCGRARPEGEGSFGALGTGYVAYVVGLLQAVYPELGIEVVNKGISGNTVRDLKARWEEDVIAQKPDWVSIMIGINDVWRQYDLPFMKEKHVYLDEYEATLRSLVLETKPLVKGIILMTPFYIEGNEQDPMRRTMDQYGRVVKQIAEETNSLFVDTQAAFNEVLKTLYPAALAWDRVHPSVAGHMILARAFLREIGFEWVRSR
As for B7, the “stoichiometry N” value in the data set “SEC [14]” was determined as 2; in the data set “SEC [13]” it was 8.

What is called stoichiometry N is the number of molecules, sites or subunits per partner or assembly.
